Experimental data reported in paper doi:10.1101/299487 (bioRxiv, 2018).
Where two headings read alike, the source gives them in different places.

B1: Dam1C/DASH heterodecamer (recombinant) (complex, yeast (budding yeast))
chain 1: MSEDKAKLGTTRSATEYRLSIGSAPTSRRSSMGESSSLMKFADQEGLTSSVGEYNENTIQQLLLPKIRELSDSIITLDSNFTRLNFIHESLADLNESLGSLLYGIMSNSWCVEFSQAPHDIQDDLIAIKQLKSLEDEKNNLVMELSNMERGIKRKKDEQGENDLAKASQNKQFNQPLFPSSQVRKYRSYDNRDKRKPSKIGNNLQVENEEDYEDDTSSEASFVLNPTNIGMSKSSQGHVTKTTRLNNNTNSKLRRKSILHTIRNSIASGADLPIENDNVVNLGDLHPNNRISLGSGAARVVNGPVTKNRNSMFSGRAERKPTESRHSVAKKTEKKINTRPPFR
chain 2: MMASTSNDEEKLISTTDKYFIEQRNIVLQEINETMNSILNGLNGLNISLESSIAVGREFQSVSDLWKTLYDGLESLSDEAPIDEQPTLSQSKTK
chain 3: MDSIDEQIAIKRKELQSLQKITSLTDGLKIQLTELNEQIKEMGMNADSVAQLMNNWDSIINNISQASLGLLQYAEGDYEIGPWKDSKKKESEQSNETGLEAQENDKNDEDNDEDEDLVPLPETMVRIRVDGNE
chain 4: MEHNLSPLQQEVLDKYKQLSLDLKALDETIKELNYSQHRQQHSQQETVSPDEILQEMRDIEVKIGLVGTLLKGSVYSLILQRKQEQESLGSNSK
chain 5: MENPHEQVQANILSRIIGNVKRLNESVAILNQELVTINNRNKNLEIMGAICDNYHSSVQFNLEATNNKKPPL
chain 6: MSEQSQLDDSTIDKLIPQIFNEMRSNLNNTTNKFPKSTGGGASDNISANSNSIRSFNSITTQSLLKESESLDKITAMIKNVTAALKNNLPVYVNQVHEVCKSTNSILDSWINIHSQAGYIHKLMSDQTYLKLINDRLHNENVNTNDEDGSTLHNVIALKKKEILDLRQKLENRKGEKDAAPAKPPNQGLNPRYGVQSGRRPVPSAGISNNGRVRKTHVPASKRPSGIPRVTNRWTKPTASSSRKMFR
chain 7: MDSASKEETLEKLDQEITVNLQKIDSNLSFCFHKITQDIIPHVATYSEICERIMDSTEWLGTMFQETGLVNLQANAAAPVGNAPVKSLVSNNVGIFPTSAEEASRQSQTDNGPNEADSAVHVNRDVHSMFNNDSIDDFHTANITSTGQILKLPDSSDEDTGSEAVPSREQTDLTGEGHGGADDEQDESTIQRQSRKRKISLLLQQQYGSSSSMVPSPIVPNKMRKQLAHEEHINNDGDNDDENSNNIESSPLKQGHHHPKGQADDNNEGPDEEESTKEVPKPGTIIHFSTNR
chain 8: MTDALEQSVLALEGTVSVLKDSVESLKCANEPSTNLASTMLQTKRVFRLVPEYDVERSKLDLIEEVEPLVRTLGDKLRKSMGRMQRELDTLQQTYELNDLRLKKNISMDDDDALNSPDMGQEYEGRDADDVVMMASSTNEELEELKKLKEKKKQLENKLEILKQK
chain 9: MGESLDRCIDDINRAVDSMSTLYFKPPGIFHNAILQGASNKASIRKDITRLIKDCNHDEAYLLFKVNPEKQSVSRRDGKEGVFDYVIKRDTDMKRNRRLGRPGEKPIIHVPKEVYLNKDRLDLNNKRRRTATTSGGGLNGFIFDTDLIGSSVISNSSSGTFKALSAVFKDDPQIQRLLYALENGSVLMEEESNNQRRKTIFVEDFPTDLILKVMAEVTDLWPLTEFKQDYDQLYHNYEQLSSKLRFIKKEVLLQDDRLKTMSQYHPSSSHDVAKIIRKEKDEIRRLEMEIANLQE
chain 10: MNANKQRQYNQLAHELRELQTNLQETTKQLDIMSKQCNENLVGQLGKVHGSWLIGSYIYYMEQMLGKTQ
B2: Dam1C/DASH outer-kinetochore complex in yeast cells (complex)
chain 1: B1 chain 1
chain 2: B1 chain 2
chain 3: B1 chain 3
chain 4: B1 chain 4
chain 5: B1 chain 5
chain 6: B1 chain 6
chain 7: B1 chain 7
chain 8: B1 chain 8
chain 9: B1 chain 9
chain 10: B1 chain 10

Experiments:
[1] = target: the molecule itself; test: cryo-EM structure
[2] = target: the molecule itself; test: cryo-EM structure; remark: listed apart in the source

Protein	stoichiometry N [1]	stoichiometry N [2]
B1	17	
B2		17
